Laboratory results published in US20260132219A1.

What was measured:
human HER3 = human HER3 (UniProt P21860); assay: BLI; absence of human NRG1
human HER3 (human) = human HER3 (human) (UniProt Q02297); assay: BLI; presence of human NRG1

Substance: LJM-716
- Kd (human HER3): < 0.001 nM
- Kd (human HER3 (human)): 16.8 nM
